Data reported in article PMC6053953.
Where “and” joins values, the source holds several entries; their conditions need not be identical. Equal values may be shown once.

What was measured:
[1] = molecular target: His6-tagged human peroxiredoxin 3 (human); assay: native MS; 20 uM protein (monomer) buffer exchanged from pH 8.0 into 100 mM ammonium acetate, pH 4.0; spectra from 60 seconds (0 hours) to 3 hours after exchange; step: ring-to-ring stacking
[2] = molecular target: His6-tagged human peroxiredoxin 3 (human); assay: SEC-SLS; Superdex 200 Increase 10/300 GL with refractive index and right-angle light scattering, 28 C; 20 uM protein in 100 mM ammonium acetate, pH 8.0; step: chains to the dodecameric ring
[3] = molecular target: His6-tagged human peroxiredoxin 3 (human); assay: native MS; 20 uM protein (monomer) in 100 mM ammonium acetate, pH 8.0; trap collision energy 20 V; step: chains to the dodecameric ring
[4] = molecular target: His6-tagged human peroxiredoxin 3 (human); assay: native MS; protein buffer exchanged from 100 mM ammonium acetate, pH 4.0, back into pH 8.0 before injection; step: stacks of rings back to single rings
[5] = molecular target: His6-tagged human peroxiredoxin 3 (human); assay: AUC; sedimentation velocity, 20 C, 20 uM protein (monomer) in 100 mM ammonium acetate, pH 4.0; c(s) distribution; step: ring-to-ring stacking
[6] = molecular target: cleaved human peroxiredoxin 3 (human); assay: native MS; 20 uM protein (monomer) buffer exchanged from pH 8.0 into 100 mM ammonium acetate, pH 4.0; spectra from 60 seconds (0 hours) to 3 hours after exchange; step: ring-to-ring stacking
[7] = molecular target: cleaved human peroxiredoxin 3 (human); assay: SEC-SLS; Superdex 200 Increase 10/300 GL with refractive index and right-angle light scattering, 28 C; 20 uM protein in 100 mM ammonium acetate, pH 8.0; step: chains to the dodecameric ring
[8] = molecular target: cleaved human peroxiredoxin 3 (human); assay: native MS; 20 uM protein (monomer) in 100 mM ammonium acetate, pH 8.0; trap collision energy 20 V; step: chains to the dodecameric ring
[9] = molecular target: cleaved human peroxiredoxin 3 (human); assay: native MS; protein buffer exchanged from 100 mM ammonium acetate, pH 4.0, back into pH 8.0 before injection; step: stacks of rings back to single rings
[10] = molecular target: cleaved human peroxiredoxin 3 (human); assay: AUC; sedimentation velocity, 20 C, 20 uM protein (monomer) in 100 mM ammonium acetate, pH 4.0; c(s) distribution; step: ring-to-ring stacking

His6-tagged human peroxiredoxin 3 (natural protein)
rings in a stack [1]: 2 to 3 rings | stoichiometry N [2]: 12 | stoichiometry N [3]: 12 | rings in a stack [4]: 1 rings | rings in a stack [5]: 2 rings and 4 rings

cleaved human peroxiredoxin 3 (natural protein)
rings in a stack [6]: 6 rings | rings in the most populated stack [6]: 3 rings | stoichiometry N [7]: 12 | stoichiometry N [8]: 12 | rings in a stack [9]: 1 rings and 2 rings | rings in a stack (main population) [10]: 34 rings
